In article PMC4743851:

Tests used:
[1] = molecular target: Syntaxin-3 (endogenous, INS-1 832/13 cells) (rat (endogenous in INS-1 832/13)) (UniProt Q08849); experiment: co-IP; IP with 2 μg Syn-3 or Syn-1A antibody from 1 mg INS-1 832/13 lysate; cells at basal 0.8 mM glucose or stimulated with 16.7 mM glucose plus 10 nM GLP-1 for 30 min; blots quantified as percent recovery of total lysate input
[2] = molecular target: Syntaxin-1A (endogenous, INS-1 832/13 cells) (rat (endogenous in INS-1 832/13)) (UniProt P32851); experiment: as above
[3] = molecular target: GST-Syn-3 (cytoplasmic domain a.a. 1–263) (UniProt Q08849); experiment: pull-down; GST-Syn-1A (1-265) or GST-Syn-3 (1-263) on glutathione agarose beads incubated with lysate of HEK293 cells transfected with Cav1.3 or Cav2.3, 4°C, 2 h; washed with 20 mM HEPES pH 7.4, 150 mM KOAc, 1 mM EDTA, 1 mM MgCl2, 5% glycerol, 0.1% Triton X-100; blots quantified as percent recovery
[4] = molecular target: GST-Syn-1A (cytoplasmic domain a.a. 1–265) (UniProt P32851); experiment: as above
GST-Syn-1A (cytoplasmic domain a.a. 1–265), sequence (P32851 1-265): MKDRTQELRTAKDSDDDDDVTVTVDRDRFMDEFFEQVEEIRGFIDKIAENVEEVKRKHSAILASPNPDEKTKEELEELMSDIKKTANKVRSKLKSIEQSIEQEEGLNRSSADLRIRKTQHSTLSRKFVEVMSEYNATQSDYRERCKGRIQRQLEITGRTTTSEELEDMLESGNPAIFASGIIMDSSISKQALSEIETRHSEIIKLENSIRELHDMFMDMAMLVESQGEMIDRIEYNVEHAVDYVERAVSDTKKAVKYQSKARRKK

[5] = molecular target: Syn-3 expressed in HEK293 cells (UniProt Q08849); experiment: co-IP; HEK293 cells co-transfected with Cav1.3 or Cav2.3 and Syn-1A or Syn-3; IP with anti-Syn-1A or anti-Syn-3 antibody; blots quantified as percent recovery of total lysate input
Syn-3 expressed in HEK293 cells, sequence (Q08849 whole entry): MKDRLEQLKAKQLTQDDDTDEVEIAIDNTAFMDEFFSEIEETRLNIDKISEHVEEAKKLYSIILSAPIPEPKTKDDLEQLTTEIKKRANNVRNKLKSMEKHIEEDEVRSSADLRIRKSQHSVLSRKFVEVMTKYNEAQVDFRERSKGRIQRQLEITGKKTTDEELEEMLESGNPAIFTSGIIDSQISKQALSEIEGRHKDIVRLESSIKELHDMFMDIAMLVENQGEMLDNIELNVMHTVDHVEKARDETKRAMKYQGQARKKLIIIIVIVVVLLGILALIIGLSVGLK

[6] = molecular target: Syn-1A expressed in HEK293 cells (UniProt P32851); experiment: as above

Syntaxin-3 (endogenous, INS-1 832/13 cells) (rat (endogenous in INS-1 832/13)), sequence (Q08849 whole entry): as above
Cav1.3 alpha1 subunit expressed in HEK293 cells, P27732 1-2203 (natural protein), sequence (P27732 whole entry): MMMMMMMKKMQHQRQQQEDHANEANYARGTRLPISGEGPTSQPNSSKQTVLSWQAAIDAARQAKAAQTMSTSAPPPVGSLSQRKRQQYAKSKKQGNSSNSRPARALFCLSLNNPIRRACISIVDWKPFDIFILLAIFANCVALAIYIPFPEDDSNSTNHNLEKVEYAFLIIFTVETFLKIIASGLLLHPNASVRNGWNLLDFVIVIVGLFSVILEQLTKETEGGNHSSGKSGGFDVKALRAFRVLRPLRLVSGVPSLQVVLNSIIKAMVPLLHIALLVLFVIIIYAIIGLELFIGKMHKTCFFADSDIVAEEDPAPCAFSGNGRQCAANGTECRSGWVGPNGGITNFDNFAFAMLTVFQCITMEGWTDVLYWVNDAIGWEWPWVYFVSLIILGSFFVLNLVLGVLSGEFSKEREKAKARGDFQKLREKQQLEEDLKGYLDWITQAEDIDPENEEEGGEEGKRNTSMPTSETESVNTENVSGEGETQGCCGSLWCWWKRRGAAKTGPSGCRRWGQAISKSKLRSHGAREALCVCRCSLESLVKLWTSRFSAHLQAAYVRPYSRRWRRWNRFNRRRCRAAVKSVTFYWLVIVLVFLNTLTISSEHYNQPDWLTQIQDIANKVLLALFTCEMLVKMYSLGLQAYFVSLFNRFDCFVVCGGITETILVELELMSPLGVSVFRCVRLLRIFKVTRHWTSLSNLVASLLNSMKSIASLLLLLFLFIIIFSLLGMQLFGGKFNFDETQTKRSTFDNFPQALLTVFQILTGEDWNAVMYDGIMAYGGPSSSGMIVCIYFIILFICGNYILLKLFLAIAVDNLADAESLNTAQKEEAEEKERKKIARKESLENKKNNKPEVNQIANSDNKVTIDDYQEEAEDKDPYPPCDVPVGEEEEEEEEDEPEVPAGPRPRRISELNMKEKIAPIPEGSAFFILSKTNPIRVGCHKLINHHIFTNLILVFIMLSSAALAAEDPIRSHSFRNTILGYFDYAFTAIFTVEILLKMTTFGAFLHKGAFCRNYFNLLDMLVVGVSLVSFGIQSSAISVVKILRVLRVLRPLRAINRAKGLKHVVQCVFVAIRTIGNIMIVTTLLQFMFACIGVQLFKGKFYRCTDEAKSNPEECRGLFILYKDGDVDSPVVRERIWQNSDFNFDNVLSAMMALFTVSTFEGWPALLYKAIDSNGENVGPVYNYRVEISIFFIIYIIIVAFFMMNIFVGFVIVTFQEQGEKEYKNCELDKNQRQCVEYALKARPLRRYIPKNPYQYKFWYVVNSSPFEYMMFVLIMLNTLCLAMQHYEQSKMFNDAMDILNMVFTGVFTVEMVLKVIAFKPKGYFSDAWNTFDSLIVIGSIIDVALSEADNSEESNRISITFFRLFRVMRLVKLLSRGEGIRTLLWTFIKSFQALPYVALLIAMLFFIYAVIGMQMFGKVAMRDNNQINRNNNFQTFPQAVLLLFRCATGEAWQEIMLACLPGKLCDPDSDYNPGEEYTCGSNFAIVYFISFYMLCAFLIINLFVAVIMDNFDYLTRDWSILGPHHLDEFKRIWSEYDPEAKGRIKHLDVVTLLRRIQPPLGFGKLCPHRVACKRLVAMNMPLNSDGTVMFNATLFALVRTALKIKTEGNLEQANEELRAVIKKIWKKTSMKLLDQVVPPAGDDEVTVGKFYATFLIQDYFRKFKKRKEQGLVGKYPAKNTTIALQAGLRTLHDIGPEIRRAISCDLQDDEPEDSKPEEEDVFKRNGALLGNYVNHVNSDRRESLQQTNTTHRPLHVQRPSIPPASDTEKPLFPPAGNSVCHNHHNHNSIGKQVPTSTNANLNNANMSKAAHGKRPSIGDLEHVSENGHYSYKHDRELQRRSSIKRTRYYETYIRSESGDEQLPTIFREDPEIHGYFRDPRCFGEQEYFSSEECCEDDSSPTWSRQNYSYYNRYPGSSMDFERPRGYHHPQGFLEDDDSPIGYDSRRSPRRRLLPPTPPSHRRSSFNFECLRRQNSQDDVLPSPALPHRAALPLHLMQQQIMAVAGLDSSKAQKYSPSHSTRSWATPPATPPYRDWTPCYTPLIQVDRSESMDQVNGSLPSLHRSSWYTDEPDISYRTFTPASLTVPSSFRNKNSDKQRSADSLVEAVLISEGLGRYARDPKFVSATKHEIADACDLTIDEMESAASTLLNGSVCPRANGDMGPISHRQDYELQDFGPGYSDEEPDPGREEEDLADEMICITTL
Cav1.3 alpha1 pore-forming subunit (endogenous, INS-1 832/13 cells), P27732 1-2203 (natural protein), sequence (P27732 whole entry): as above
Cav2.3 alpha1 subunit expressed in HEK293 cells, Q07652 1-2222 (natural protein), sequence (Q07652 whole entry): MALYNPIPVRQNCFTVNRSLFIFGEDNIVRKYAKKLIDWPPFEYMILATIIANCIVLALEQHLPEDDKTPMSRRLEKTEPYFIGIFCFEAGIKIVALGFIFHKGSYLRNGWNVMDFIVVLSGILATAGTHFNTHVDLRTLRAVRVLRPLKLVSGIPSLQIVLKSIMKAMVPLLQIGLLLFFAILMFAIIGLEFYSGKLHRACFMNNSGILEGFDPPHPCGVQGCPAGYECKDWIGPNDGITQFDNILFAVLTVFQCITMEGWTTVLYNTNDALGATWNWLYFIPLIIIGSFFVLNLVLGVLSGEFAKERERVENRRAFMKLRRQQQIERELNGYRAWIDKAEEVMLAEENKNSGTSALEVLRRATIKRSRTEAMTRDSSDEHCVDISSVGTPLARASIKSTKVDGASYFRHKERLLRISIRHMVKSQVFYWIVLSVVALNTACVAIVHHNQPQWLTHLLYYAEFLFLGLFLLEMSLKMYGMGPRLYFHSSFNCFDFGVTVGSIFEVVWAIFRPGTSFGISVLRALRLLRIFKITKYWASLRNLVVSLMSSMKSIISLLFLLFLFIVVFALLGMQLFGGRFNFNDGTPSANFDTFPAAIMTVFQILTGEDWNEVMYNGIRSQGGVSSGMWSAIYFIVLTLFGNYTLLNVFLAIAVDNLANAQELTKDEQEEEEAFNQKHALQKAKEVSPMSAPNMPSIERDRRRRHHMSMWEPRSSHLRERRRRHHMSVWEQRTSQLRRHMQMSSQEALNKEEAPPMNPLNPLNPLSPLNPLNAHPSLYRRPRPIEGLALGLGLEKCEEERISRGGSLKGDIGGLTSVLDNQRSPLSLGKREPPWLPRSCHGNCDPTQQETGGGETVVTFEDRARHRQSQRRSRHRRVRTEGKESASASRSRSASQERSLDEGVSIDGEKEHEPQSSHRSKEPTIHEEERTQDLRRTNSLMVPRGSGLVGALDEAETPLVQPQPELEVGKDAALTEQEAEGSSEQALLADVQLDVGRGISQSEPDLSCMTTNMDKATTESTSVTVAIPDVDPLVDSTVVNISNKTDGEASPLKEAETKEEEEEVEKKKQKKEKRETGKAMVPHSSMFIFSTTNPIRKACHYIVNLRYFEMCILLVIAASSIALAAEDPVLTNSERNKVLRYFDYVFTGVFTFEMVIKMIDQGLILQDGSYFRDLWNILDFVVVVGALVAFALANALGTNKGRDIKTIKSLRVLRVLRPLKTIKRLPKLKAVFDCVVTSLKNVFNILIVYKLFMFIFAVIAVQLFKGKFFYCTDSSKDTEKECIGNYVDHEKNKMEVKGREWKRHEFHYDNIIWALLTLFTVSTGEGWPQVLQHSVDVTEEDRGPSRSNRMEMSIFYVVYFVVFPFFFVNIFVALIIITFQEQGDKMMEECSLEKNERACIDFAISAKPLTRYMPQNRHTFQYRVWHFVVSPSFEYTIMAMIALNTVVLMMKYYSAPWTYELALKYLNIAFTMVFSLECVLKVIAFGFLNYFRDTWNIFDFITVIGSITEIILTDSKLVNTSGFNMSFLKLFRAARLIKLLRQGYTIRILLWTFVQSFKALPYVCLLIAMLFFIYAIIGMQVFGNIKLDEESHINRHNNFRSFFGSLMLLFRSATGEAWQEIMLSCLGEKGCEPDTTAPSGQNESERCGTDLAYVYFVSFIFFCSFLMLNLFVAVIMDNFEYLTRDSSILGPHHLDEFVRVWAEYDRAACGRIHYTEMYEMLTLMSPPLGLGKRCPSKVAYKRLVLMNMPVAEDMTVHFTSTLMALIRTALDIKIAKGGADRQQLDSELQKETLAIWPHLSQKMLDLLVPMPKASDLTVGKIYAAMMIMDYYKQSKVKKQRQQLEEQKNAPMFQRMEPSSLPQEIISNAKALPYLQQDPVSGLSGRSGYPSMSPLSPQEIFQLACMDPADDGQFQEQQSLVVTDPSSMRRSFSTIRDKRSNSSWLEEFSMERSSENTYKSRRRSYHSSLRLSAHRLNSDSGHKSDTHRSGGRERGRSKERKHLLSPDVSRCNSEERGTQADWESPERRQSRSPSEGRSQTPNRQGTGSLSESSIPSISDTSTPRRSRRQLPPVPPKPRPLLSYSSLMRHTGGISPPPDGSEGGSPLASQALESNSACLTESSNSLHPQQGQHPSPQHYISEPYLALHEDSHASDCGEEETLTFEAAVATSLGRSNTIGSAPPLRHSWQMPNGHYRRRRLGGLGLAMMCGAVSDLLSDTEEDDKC
Cav2.3 alpha1 pore-forming subunit (endogenous, INS-1 832/13 cells), Q07652 1-2222 (natural protein), sequence (Q07652 whole entry): as above

Substance	percent recovery of total lysate input, basal (0.8 mM glucose) [1]	percent recovery of total lysate input, stimulated (16.7 mM glucose + 10 nM GLP-1) [1]	percent recovery of total lysate input, basal (0.8 mM glucose) [2]	percent recovery of total lysate input, stimulated (16.7 mM glucose + 10 nM GLP-1) [2]	percent recovery of total lysate input [3]	percent recovery of total lysate input [4]	percent recovery of total lysate input [5]	percent recovery of total lysate input [6]
Cav1.3 alpha1 pore-forming subunit (endogenous, INS-1 832/13 cells), P27732 1-2203 (natural protein)	1.9 to 2%	2%	1.9%	15%	–	–	–	–
Cav1.3 alpha1 subunit expressed in HEK293 cells, P27732 1-2203 (natural protein)	–	–	–	–	5.3%	25.7%	7.8%	18.1%
Cav2.3 alpha1 pore-forming subunit (endogenous, INS-1 832/13 cells), Q07652 1-2222 (natural protein)	1.7%	8.1%	–	–	–	–	–	–
Cav2.3 alpha1 subunit expressed in HEK293 cells, Q07652 1-2222 (natural protein)	–	–	–	–	20.1%	8.4%	6.1%	2.2%
